Here are results for three molecules from doi:10.1101/2022.07.11.499577 (bioRxiv, 2022).

The labels stand for the following.
B1: Epl1 with a TAP tag fused to the C-terminus (natural protein)
chain: MPTPSNAIEINDGSHKSGRSTRRSGSRSAHDDGLDSFSKGDSGAGASAGSSNSRFRHRKISVKQHLKIYLPNDLKHLDKDELQQREVVEIETGVEKNEEKEVHLHRILQMGSGHTKHKDYIPTPDASMTWNEYDKFYTGSFQETTSYIKFSATVEDCCGTNYNMDERDETFLNEQVNKGSSDILTEDEFEILCSSFEHAIHERQPFLSMDPESILSFEELKPTLIKSDMADFNLRNQLNHEINSHKTHFITQFDPVSQMNTRPLIQLIEKFGSKIYDYWRERKIEVNGYEIFPQLKFERPGEKEEIDPYVCFRRREVRHPRKTRRIDILNSQRLRALHQELKNAKDLALLVAKRENVSLNWINDELKIFDQRVKIKNLKRSLNISGEDDDLINHKRKRPTIVTVEQREAELRKAELKRAAAAAAAAKAKNNKRNNQLEDKSSRLTKQQQQQLLQQQQQQQQNALKTENGKQLANASSSSTSQPITSHVYVKLPSSKIPDIVLEDVDALLNSKEKNARKFVQEKMEKRKIEDADVFFNLTDDPFNPVFDMSLPKNFSTSNVPFASIASSKFQIDRSFYSSHLPEYLKGISDDIRIYDSNGRSRNKDNYNLDTKRIKKTELYDPFQENLEIHSREYPIKFRKRVGRSNIKYVDRMPNFTTSSTKSACSLMDFVDFDSIEKEQYSREGSNDTDSINVYDSKYDEFVRLYDKWKYDSPQNEYGIKFSDEPARLNQISNDTQVIRFGTMLGTKSYEQLREATIKYRRDYITRLKQKHIQHLQQQQQQQQQQQQQAQQQKQKSQNNNSNSSNSLKKLNDSLINSEAKQNSSITQKNSS
B2: Eaf1 (natural protein)
chain: MSSRPSSAVPNSASLSEDQSSDRSKFPKADDLIDERDRKLTELYCVSRLNQLLELTDENKLRKEIDAFLKKNDIRRGIRFDEASLPKLLHTAATPITKKKLKDVNLINVPNQRLSDSKMSRELPENSENVSVKSESHFVPSHDNSIRENMMDSLRPAEKTGGMWNKRPLESTMGGEEERHEKRQKMQSQSLESSNNSEMASLPISPRPPVPNALAHYTYYENIEYPPADPTEVQPAVKFKDPLIKNIMAKEIDTSDHYNENNVDALETVFLLMNDYIPSKIPQALPLAELKYMSQTLPLINLIPRAHKALTTNIINNALNEARITVVGSRIEELRRLGLWSLRQPKRFIDPWKQHNTHQNILLEEAKWMQADFKEGHKYKVAICTAMAQAIKDYWTYGEICCVKRKTLLPGKENKLSDDGRISEKSGRPSDTSRNDSDISIAGKDDIGIIANVDDITEKESAAANDNDENGKNEAGAKSDFDFADGLLSQEGAHDQIISSIDTKLLLKKPSSSSEVVLIQHEVAASSALIETEESKKELAPPFKLSIFVDELNTFEKTLIQDLPLYNGINEERPKKDDSLPFIPISKSVVSLDDNGFYKLLERQLIDEEPSISQLSKRRGMFYGNRRNHYLRPPAVPSLRYLQNRTPTIWLSEDDQELVKNINTYGYNWELISAHMTHRLTYSYLSNIERRTPWQCFERFVQLNERFNFSDLKGPRAHSAQQWLIEAHKFQQRQNRRISPLGVNTESIQRGHRRLRWASMFEAIRKCMKKRENTPRPNPTQPRKPLDCKNMKVPTPAEMSLLKAQRDEALRRDIQLRRTVKNRLQQRQQQSQQAHSSRAQSPIPSNGKSSSNLARNGQASAPRPNQKQYTEQDIIESYSRKLLEQKPDIGPEMALKAAKNYYRTLREQQQQLKQHQIQQQRQQLQEESSHVQQLQQLQPGSQAPPPKSSPSQSSLSNISNINSAPRIKSPTPQEILQRFQKQ
B3: Eaf2/Swc4 (natural protein)
chain: MSSSDIFDVLNIKQKSRSPTNGQVSVPSSSAANRPKPQVTGMQRELFNLLGENQPPVVIKSGNNFKEKMLSTSKPSPWSFVEFKANNSVTLRHWVKGSKELIGDTPKESPYSKFNQHLSIPSFTKEEYEAFMNENEGTQKSVESEKNHNENFTNEKKDESKNSWSFEEIEYLFNLCKKYDLRWFLIFDRYSYNNSRTLEDLKEKFYYTCRNYFKASDPSNPLLSSLNFSAEKEIERKKYLQRLLSRSAAEIAEEEALVVESKKFEMAAKRTLAERESLLRLLDSPHSDQTITQYLTSQGMSQLYNALLADKTRKRKHDLNIPENPWMKQQQQFAQHRQLQQLNVKKSEVKENLSPKKTKRQRQEMQTALKRKSESAYAEQLLKDFNSDERKALGVITHGEKLSPGVYLRSTKLSTFKPALQNKILAILQELSLPSRPVMPSFDVMERQEELLKKINTLIDLKKHVDKYEAGMSITK

The target in experiment [1] is B2. As to the kind of experiment: affinity purification with mass spectrometry.
A further experiment deals with Tra1 (S. cerevisiae, UniProt P38811 1-3744). As to the kind of experiment: cryo-EM structure.
Chain of Tra1 (P38811 whole entry): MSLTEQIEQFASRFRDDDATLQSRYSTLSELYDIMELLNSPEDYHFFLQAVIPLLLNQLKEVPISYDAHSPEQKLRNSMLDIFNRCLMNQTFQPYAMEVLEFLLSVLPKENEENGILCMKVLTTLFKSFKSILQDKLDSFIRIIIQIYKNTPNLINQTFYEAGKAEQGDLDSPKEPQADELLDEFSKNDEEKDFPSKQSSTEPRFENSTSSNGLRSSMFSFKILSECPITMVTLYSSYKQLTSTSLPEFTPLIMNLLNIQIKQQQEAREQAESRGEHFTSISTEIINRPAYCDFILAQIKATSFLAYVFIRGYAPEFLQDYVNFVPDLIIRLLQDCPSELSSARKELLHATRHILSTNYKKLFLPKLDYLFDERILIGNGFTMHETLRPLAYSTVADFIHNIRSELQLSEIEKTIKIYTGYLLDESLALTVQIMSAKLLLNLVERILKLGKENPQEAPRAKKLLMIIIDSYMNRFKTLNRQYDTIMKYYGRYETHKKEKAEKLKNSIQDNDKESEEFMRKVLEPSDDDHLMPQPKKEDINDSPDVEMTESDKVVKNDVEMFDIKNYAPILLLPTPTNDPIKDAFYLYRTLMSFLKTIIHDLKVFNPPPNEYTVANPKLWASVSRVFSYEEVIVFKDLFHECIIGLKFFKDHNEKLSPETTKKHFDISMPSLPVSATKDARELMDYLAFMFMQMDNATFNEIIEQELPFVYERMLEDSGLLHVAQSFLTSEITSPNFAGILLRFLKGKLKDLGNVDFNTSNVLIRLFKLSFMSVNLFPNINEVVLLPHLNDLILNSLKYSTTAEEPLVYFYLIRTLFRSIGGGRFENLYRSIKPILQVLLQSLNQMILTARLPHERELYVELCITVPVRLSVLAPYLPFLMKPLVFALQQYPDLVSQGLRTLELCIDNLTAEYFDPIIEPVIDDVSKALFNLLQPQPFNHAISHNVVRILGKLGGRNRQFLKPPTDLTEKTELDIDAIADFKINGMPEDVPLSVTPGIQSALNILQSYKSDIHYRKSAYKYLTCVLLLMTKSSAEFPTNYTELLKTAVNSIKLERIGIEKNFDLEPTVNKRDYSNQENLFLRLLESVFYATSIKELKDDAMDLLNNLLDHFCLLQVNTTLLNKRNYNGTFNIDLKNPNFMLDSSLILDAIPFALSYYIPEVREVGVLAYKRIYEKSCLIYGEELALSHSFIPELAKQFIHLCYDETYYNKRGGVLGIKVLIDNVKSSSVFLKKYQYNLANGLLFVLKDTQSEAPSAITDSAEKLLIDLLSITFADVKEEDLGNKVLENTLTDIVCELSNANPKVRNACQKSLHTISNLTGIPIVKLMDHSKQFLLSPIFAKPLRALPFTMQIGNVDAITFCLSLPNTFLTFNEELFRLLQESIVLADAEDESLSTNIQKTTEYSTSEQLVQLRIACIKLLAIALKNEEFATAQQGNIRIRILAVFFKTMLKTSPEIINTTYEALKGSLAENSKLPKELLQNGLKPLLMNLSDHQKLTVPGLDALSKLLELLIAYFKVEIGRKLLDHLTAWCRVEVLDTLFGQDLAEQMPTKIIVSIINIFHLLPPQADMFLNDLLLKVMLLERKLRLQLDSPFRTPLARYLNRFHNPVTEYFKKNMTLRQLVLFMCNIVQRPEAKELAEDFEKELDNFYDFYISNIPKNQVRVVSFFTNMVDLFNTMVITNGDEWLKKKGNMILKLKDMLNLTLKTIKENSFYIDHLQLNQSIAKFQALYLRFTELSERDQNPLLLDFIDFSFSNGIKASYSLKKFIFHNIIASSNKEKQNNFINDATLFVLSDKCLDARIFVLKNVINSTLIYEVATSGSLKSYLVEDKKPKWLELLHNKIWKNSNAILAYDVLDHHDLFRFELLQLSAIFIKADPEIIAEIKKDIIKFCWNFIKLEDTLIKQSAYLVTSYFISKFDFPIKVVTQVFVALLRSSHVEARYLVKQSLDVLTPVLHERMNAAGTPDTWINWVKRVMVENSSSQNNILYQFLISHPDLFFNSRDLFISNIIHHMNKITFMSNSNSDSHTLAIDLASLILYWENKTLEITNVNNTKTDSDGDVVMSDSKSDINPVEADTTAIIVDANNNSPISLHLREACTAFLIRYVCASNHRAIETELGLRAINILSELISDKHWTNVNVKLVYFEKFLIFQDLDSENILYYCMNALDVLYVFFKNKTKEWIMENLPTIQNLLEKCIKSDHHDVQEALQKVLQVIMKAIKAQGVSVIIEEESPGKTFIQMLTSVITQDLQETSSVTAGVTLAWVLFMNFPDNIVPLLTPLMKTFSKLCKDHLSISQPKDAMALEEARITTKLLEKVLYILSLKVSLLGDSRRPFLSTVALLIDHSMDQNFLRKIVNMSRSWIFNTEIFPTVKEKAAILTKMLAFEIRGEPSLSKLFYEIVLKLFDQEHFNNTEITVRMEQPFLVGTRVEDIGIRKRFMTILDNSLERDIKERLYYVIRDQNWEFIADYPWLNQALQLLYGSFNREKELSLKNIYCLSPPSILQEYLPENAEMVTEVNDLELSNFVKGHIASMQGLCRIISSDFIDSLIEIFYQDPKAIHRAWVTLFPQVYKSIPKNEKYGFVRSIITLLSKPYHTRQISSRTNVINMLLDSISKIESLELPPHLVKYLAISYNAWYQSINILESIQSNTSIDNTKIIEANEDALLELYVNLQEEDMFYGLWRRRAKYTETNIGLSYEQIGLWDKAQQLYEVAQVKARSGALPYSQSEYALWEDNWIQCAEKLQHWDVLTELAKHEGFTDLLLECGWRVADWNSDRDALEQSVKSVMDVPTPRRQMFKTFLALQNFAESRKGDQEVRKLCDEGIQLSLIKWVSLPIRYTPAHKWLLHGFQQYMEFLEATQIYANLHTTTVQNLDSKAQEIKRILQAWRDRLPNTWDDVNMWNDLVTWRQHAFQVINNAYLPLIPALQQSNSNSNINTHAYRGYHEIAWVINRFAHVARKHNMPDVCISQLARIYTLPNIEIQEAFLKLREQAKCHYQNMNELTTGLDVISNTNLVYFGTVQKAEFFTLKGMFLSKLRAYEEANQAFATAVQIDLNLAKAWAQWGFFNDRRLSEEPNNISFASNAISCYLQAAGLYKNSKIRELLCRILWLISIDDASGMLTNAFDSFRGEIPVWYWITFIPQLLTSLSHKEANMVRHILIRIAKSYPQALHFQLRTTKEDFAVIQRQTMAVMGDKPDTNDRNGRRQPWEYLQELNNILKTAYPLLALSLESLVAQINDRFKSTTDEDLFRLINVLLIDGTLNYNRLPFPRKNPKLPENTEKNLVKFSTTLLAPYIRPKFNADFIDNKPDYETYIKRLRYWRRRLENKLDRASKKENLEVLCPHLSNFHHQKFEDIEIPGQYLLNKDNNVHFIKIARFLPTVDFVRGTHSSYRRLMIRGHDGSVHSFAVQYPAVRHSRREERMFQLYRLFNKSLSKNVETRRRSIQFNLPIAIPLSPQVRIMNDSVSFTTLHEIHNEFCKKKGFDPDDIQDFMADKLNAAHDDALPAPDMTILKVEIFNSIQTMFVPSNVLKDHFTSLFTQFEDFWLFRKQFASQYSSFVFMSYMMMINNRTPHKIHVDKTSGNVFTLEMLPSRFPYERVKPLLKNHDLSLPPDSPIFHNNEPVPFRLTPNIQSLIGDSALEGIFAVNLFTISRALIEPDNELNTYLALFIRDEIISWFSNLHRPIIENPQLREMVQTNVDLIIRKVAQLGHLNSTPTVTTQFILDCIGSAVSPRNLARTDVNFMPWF
In experiment [2] the target is B2. As to the kind of experiment: cryo-EM structure.

Take B1: the binding result with Eaf1 [1] is “binds”.

As to B2, the binding result with Tra1 is listed as “binds”.

Take B3: the binding result with Eaf1 [2] and with Tra1 was “binds” in each case.
